# Measurements from patent publication US20190330271A1 (HANGZHOU WISDOM PANACEA BIOLOGICS, published 2019).
# Target: T1, Aβ42 oligomers (UniProt P05067 672-713)
# T1 construct: domain: Aβ42; Oligomeric state
# Test: ELISA on coated Aβ42 oligomers, His-tagged polypeptide at 1 µg per well
# Procedure: 100 μL of monomers, oligomers or fibers of Aβ42, PrP, amylin, insulin or lysozyme were respectively coated onto a 96-well ELISA microplate at 1 μg/well, BSA was used as a negative control. The plate were then placed at 37° C. for 2 h, blocked with 200 μL/well of 3% BSA at 37° C. for 2 h, and washed 3 times with PBS. 100 μL of histidine-tagged ZR polypeptide solution was added, and the plate was incubated at room temperature for 1 h, and then washed 3 times with PBS containing 0.1% Tween-20. 100 μL of HRP-linked antibody 9E10 which can recognize the histidine tag was added to each well, and the plate was incubated at room temperature for 1 h, and then washed 3 times with PBS containing 0.1% Tween-20. 100 μL of TMB was added to each well, and the plate was placed at 37° C. for 20 min. Then, 50 μL of 1 mmol/L sulfuric acid was added to each well to terminate the reaction, and OD450 values were measured using a microplate reader. The above procedure was repeated for 3 times under the same condition.
# T1 sequence (P05067 672-713 limits assumed): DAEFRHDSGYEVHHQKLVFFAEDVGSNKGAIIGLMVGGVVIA
row,Binder,OD450
1,"SAFNNKR (also called ZR with position 2 substituted with alanine; not shown: histidine tag) [SEQ ID NO: 8, histidine-tagged]",0.48
2,"SFFANKR (also called ZR with position 4 substituted with alanine; not shown: histidine tag) [SEQ ID NO: 10, histidine-tagged]",0.57
